{"source": "patent US20160090402A1", "key": {"hASCT1 receptor (human)": {"biological_target": "hASCT1 receptor (human) (UniProt P43007)", "sequence (P43007 whole entry)": "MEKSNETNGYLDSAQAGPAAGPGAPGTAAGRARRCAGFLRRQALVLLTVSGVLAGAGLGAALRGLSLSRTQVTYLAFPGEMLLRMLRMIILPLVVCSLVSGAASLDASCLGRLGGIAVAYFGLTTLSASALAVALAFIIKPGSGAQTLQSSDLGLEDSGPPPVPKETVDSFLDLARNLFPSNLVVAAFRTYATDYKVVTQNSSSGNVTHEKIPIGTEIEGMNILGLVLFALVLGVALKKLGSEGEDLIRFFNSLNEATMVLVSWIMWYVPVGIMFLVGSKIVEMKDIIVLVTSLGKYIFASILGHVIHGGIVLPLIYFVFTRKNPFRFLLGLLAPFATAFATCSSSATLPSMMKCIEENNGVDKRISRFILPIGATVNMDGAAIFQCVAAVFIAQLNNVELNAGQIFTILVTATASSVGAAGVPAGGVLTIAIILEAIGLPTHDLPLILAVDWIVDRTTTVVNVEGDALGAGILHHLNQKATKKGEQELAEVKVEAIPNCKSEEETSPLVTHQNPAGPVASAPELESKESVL", "test": "soluble Env injected into SCID mice grafted with XChASCT1 cells; cells recovered, anti-RGS-His immunofluorescence"}, "[1]": {"biological_target": "hASCT2 receptor (human type 2 sodium-dependent neutral amino acid transporter) (human) (UniProt Q15758)", "sequence (Q15758 whole entry)": "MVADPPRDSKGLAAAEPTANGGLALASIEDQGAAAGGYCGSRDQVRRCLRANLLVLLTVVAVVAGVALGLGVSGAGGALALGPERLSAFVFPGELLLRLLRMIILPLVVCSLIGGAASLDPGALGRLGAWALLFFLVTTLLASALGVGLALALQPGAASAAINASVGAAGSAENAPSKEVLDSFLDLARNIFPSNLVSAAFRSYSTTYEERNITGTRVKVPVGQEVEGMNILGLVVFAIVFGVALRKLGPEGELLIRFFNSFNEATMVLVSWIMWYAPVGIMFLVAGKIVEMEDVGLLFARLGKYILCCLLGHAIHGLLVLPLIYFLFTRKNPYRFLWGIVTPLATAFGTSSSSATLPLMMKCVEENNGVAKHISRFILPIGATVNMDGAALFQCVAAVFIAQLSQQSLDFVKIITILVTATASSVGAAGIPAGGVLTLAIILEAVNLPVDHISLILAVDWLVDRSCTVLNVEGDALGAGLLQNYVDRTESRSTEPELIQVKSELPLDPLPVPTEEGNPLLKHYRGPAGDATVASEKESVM", "test": "soluble Env injected into SCID mice grafted with XChASCT2 cells; cells recovered, anti-RGS-His immunofluorescence"}}}
{"substance": "soluble protein of plasmid 460 (envelope-spacer-His6) (from UniProt Q9UQF0 21-435) (ligand)", "values": [{"measurement": "NF/NT, Mean (fluorescent cells of 77 cells)", "setting": "hASCT1 receptor (human)", "value": 24}, {"measurement": "NF/NT, Mean (fluorescent cells of 57 cells)", "setting": "[1]", "value": 23}]}
